According to US20180298401A1 (CORNELL UNIVERSITY, published 2018):

How the values were obtained:
[1] = target: T1, Rubisco from the cyanobacterium Synechococcus elongatus PCC7942 (hexadecameric holoenzyme of eight LSU and … (Synechococcus elongatus PCC7942, UniProt Q31NB3 1-472; Q31NB2 1-111); assay: quantitative immunoblots of SeLSM35 leaf homogenates against purified protein standards
T1 construct: also called Se7942 Rubisco; cyanobacterial Rubisco
Description: SDS page, immunoblot and determination of CcmM35/Rubisco content. The crude leaf homogenates used in the carboxylase activity measurements were separated by SDS-PAGE using 4-20% polyacrylamide gradient gels (ThermoScientific, UK). For each sample, the same amount of protein, as determined by Bradford assay, was loaded onto the gel. After electrophoresis, the resolved proteins were transferred to a nitrocellulose membrane (Hybond-C Extra from GE Healthcare Life Sciences) using a western blot apparatus. The nitrocellulose membranes were immunoblotted using one of four primary polyclonal antibodies raised against: cyanobacterial (SePCC6301) Rubisco; tobaccoRubisco; the small subunit of tobacco Rubisco; and CcmM from Se PCC7942. The primary polyclonal antibody to detect CcmM35 was generated in rabbit with His-tagged CcmM58 protein purified from E. coli (Cambridge Research Biochemicals, UK) and used at a dilution of 1:500 in the immunoblots and from 1:500 to 1:2,000 for immunogold labelling, and was highly specific for CcmM (FIG. 2a). The primary antibodies were visualized by means of a secondary goat anti-rabbit peroxidase-conjugated antibody (Sigma). The absolute and relative content of Synechococcus Rubisco and CcmM35 in SeLSM35 leaves were determined using immunoblots with antibodies against CcmM and cyanobacterial Rubisco. […]

[2] = target: T2, Large subunit (LSU) of Synechococcus elongatus PCC7942 Rubisco (Synechococcus elongatus PCC7942, UniProt Q31NB3 1-472); assay: native PAGE with Coomassie stain and immunoblots
T2 construct: also called cyanobacterial LSU; Se LSU

B1: CcmM35, internal carboxysomal protein of Synechococcus elongatus PCC7942 (other, UniProt Q03513-2 1-324, looked up)
chain: MSAYNGQGRLSSEVITQVRSLLNQGYRIGTEHADKRRFRTSSWQPCAPIQSTNERQVLSELENCLSEHEGEYVRLLGIDTNTRSRVFEALIQRPDGSVPESLGSQPVAVASGGGRQSSYASVSGNLSAEVVNKVRNLLAQGYRIGTEHADKRRFRTSSWQSCAPIQSSNERQVLAELENCLSEHEGEYVRLLGIDTASRSRVFEALIQDPQGPVGSAKAAAAPVSSATPSSHSYTSNGSSSSDVAGQVRGLLAQGYRISAEVADKRRFQTSSWQSLPALSGQSEATVLPALESILQEHKGKYVRLIGIDPAARRRVAELLIQKP
notes: domain: CcmM35; CcmM35 lacks the amino-terminal domain; Untagged as expressed in the SeLSM35 tobacco line; also called Se-ccmM35 product
[1]
  stoichiometry of CcmM35 per Rubisco holoenzyme: ~4.5 CcmM35 per Rubisco holoenzyme

B2: Small subunit (SSU) of Synechococcus elongatus PCC7942 Rubisco (enzyme, UniProt Q31NB2 1-111, looked up)
chain: MSMKTLPKERRFETFSYLPPLSDRQIAAQIEYMIEQGFHPLIEFNEHSNPEEFYWTMWKLPLFDCKSPQQVLDEVRECRSEYGDCYIRVAGFDNIKQCQTVSFIVHRPGRY
notes: also called cyanobacterial SSU; Se-rbcS product
[2]
  binding result: binds
